For assay [1], the target named is Notch1 (full-length receptor expressed on cells). The experiment in a line: cell-based or functional assay.
For assay [2], the target named is Flt1 (VEGFR-1) on Ad-N1IC-transduced HUVEC (human) (UniProt P17948). Description: cell-based or functional assay.
Chain of Flt1 (VEGFR-1) on Ad-N1IC-transduced HUVEC (human) (P17948 27-1338): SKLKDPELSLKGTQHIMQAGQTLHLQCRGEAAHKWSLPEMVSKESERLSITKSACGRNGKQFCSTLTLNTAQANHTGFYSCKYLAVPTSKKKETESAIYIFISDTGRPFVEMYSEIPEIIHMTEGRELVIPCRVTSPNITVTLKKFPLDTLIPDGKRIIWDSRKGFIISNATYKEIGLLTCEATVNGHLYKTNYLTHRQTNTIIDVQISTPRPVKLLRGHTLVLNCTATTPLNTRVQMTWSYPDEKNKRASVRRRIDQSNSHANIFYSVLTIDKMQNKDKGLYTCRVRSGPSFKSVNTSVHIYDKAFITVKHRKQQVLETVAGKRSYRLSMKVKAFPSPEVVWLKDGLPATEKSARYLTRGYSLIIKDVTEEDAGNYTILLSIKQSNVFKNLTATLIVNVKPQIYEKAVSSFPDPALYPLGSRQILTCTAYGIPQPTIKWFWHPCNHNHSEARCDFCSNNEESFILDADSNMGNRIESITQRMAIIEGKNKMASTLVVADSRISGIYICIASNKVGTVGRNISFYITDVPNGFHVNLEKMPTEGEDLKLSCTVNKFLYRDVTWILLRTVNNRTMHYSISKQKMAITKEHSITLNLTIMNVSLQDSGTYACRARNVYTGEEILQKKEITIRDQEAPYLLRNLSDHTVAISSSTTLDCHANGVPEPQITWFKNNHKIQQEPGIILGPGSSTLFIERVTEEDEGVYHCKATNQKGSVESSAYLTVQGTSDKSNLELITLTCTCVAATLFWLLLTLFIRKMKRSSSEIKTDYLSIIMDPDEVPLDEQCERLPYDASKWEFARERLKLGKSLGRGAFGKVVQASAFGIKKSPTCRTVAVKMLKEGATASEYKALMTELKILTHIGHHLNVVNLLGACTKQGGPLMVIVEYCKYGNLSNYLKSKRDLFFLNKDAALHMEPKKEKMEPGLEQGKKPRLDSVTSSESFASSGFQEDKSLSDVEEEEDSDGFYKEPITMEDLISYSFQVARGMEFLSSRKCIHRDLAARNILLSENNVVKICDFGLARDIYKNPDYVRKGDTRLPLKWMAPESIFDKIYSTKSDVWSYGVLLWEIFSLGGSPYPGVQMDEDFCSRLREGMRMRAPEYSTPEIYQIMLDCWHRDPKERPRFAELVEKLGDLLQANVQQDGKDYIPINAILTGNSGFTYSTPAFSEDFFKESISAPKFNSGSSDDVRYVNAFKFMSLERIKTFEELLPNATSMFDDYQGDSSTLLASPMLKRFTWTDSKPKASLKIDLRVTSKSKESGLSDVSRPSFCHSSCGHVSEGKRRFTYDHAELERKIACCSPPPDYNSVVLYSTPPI

Take Jagged1 (ligand): the Hes1 reporter gene activity in assay [1] came out at 3.7 fold.
In assay [2], P1GF (placental growth factor) (ligand) had an HUVEC buds containing multiple filopodia of 250%.

For the origin of these results see patent US20160115217A1.
